# B1: monoclonal anti-STIM1 antibody clone B-M4 (antibody, V domains shown)
# VH: EVKLVESGGGLVQPGGSLKLSCAASGFTFSRYSMSWVRQTPEKRLEWVAHIRNGGGSTYYPDTVKGRFTISRDNAKNTLYLQMSSLKSEDTAMYYCARPPYGNYEGYFDVWGAGTTVTVSS
# VL: DIVMSQSPSSLAVSAGEKVTMSCKSSQSLLNSRTRKNYLAWYQQKPGQSPKLLIYWASTRESGVPDRFTGSGSGTDFTLTISSVQAEDLAVYYCKQSYNLYTFGGGTKLEIK
# notes: In the direct flow cytometry assays it was coupled to phycoerythrin (PE); also called B-M4 mAb; anti-STIM1 mAb clone B-M4
# Tests used:
# [1] = target: T1, recombinant STIM1 EF/SAM peptide (STIM1 aa 58-201) (human, UniProt Q13586 58-201); assay: Octet (BLI), 1 to 1 fitting model, EF-SAM peptide at 300, 200 and 133 nM
# T1 construct: also called soluble recombinant protein corresponding to the STIM1 EF-Hand domain
# T1 sequence (Q13586 58-201): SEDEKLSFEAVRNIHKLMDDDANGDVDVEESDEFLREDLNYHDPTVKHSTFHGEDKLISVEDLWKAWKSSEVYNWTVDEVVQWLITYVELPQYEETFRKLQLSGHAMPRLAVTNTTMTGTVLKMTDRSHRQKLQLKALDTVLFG
# Procedure: (§1) Affinity constants (Kon, Kdis) were calculated.
# [2] = target: T2, STIM1 peptide 2B (amino acids 97-127 of STIM1) (human, biotinylated in the ELISA of FIG. 3 panel A (position not given)); assay: ELISA on Peptide 2B (aa 97-127), B-M4 titrated
# T2 construct: One of the two immunization peptides
# T2 sequence (peptide, as listed by the source): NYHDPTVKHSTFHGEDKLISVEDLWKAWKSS
# Procedure: (§2) FIG. 3 illustrated the validation by Elisa of the monoclonal anti-STIM1 antibody clone B-M4. […] Anti-STIM1 mAb clone B-M4 mAb (10 μg/ml) was diluted to 1/10 and antigens STIM1 biotinylated peptides used at concentrations of 50 ng/well for peptides 1A and 1B and 100 ng/well for peptide 2A and 10 ng/well for peptide 2B. Panel B: Specificity of the B-M4 antibody for STIM1 is confirmed by ELISA using the peptide 2B and a recombinant STIM1 EF/SAM peptide (1 μg/mL). B-M4 mAb used at 100 μg/mL diluted to 1/10. Panel C: Specificity for the B-M4 antibody for the peptide 2B over the other peptides (1A, 1B, 2A, 2B, C2, C3, C4, C5, C6, C7 and C8). Peptides are used at a concentration of 1 μg/mL. Histograms represents mean optical density measured using an Elisa approach.
# [3] = target: T1, recombinant STIM1 EF/SAM peptide (STIM1 …); assay: Octet, EF-SAM peptide at 300, 200 and 133 nM, 1 to 1 fitting model; column kdis, same value in all three rows [table]
# Procedure: (§3) FIG. 9 represents the determination of the anti-STIM1 mAb clone B-M4 affinity. […] High affinity interaction is characterized by a low K, a fast recognizing (high kon) and a stable formation of complexes (low kdis). kdis: dissociation rate constant. kon: complex formation rate.
# as §1
# [4] = target: T1, recombinant STIM1 EF/SAM peptide (STIM1 …); assay: Octet, EF-SAM peptide at 300, 200 and 133 nM, 1 to 1 fitting model; same value in all three rows [table]
# Procedure: as §3, §1
# Peptide 1B = target: T3, Peptide 1B (biotinylated in the ELISA of Figure 3 A (site not given)); assay: ELISA, DO492 - DO Blanc
# T3 construct: also called STIM1 peptide 1B; aa 169 to aa 197
# T3 sequence (peptide, as listed by the source): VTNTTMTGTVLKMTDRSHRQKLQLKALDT
# Procedure: as §2
# Peptide 2A = target: T4, Peptide 2A (biotinylated in the ELISA of Figure 3 A (site not given)); assay: ELISA, DO492 - DO Blanc
# T4 construct: also called STIM1 peptide 2A; aa 62 to aa 95
# T4 sequence (peptide, as listed by the source): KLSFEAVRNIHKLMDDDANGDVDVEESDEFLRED
# Procedure: as §2
# [5] = target: T1, recombinant STIM1 EF/SAM peptide (STIM1 …); assay: ELISA on recombinant STIM1 EF-SAM peptide (aa 58-201) at 1 µg/mL, B-M4 titrated
# Procedure: as §2
# [6] = target: T5, mouse STIM1 at the plasma membrane of mouse spleen B and T cells (mouse, UniProt P70302 23-685); assay: direct flow cytometry with PE coupled B-M4 on spleen B and T cells, n=4
# T5 construct: whole, on cells; also called mSTIM1 (mice B and T cells)
# T5 sequence (P70302 23-685): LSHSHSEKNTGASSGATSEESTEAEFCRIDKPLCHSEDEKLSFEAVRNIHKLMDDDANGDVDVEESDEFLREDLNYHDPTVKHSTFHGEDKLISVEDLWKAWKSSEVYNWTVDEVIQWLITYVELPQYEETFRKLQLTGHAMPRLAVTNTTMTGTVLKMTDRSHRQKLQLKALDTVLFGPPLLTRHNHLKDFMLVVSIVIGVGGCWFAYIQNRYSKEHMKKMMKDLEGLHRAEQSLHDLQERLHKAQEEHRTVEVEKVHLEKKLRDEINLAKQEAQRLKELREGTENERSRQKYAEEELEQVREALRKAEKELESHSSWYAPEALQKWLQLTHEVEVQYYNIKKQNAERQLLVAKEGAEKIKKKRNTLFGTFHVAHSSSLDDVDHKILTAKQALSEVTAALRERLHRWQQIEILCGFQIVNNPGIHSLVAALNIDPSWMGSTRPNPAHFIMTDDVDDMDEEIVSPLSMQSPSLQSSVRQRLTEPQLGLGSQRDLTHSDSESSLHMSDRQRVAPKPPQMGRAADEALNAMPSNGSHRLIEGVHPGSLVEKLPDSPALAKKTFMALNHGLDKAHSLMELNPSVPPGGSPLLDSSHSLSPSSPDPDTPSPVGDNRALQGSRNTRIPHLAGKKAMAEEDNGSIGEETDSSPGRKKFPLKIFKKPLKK
# Peptide 1A = target: T6, Peptide 1A (biotinylated in the ELISA of Figure 3 A (site not given)); assay: ELISA, DO492 - DO Blanc and DO492 - DO630
# T6 construct: also called STIM1 peptide 1A; aa 128 to aa 168
# T6 sequence (peptide, as listed by the source): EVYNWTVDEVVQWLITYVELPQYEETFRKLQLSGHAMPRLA
# Procedure: as §2
binder,measurement,setting,value
B1,Kd,[1],37 nM
same,EC50 (read off the curve),[2],~0.02 µg/mL
same,koff,[3],0.000369 s⁻¹
same,kon,[4],9960 M⁻¹ s⁻¹
same,binding result,Peptide 1B,no binding
same,binding result,Peptide 2A,no binding
same,EC50 (read off the curve),[5],~0.07 µg/mL
same,binding result,[6],binds
same,binding result,Peptide 1A,no binding

# From US20230058212A1 (UNIVERSIT DE BRETAGNE OCCIDENTALE UBO, published 2023)
